The values that follow come from PMC4108183.

Substrate in data set [1]: CC(C)(COP(=O)(O)OP(=O)(O)OC[C@H]1O[C@@H](n2cnc3c(N)ncnc32)[C@H](O)[C@@H]1OP(=O)(O)O)[C@@H](O)C(=O)NCCC(=O)NCCS
In words: purified protein. To be noted: alternate sulfane sulfur acceptor; pH 9.0; 37.0 °C.

Substrate in data set [2]: O=S(O)(O)=S
In words: purified protein. To be noted: pH 9.0, 37.0 °C.

B1: yeast RDL1 (Saccharomyces cerevisiae S288C) (protein)
chain: MWKAVMNAWNGTESQSKNVSNIQSYSFEDMKRIVGKHDPNVVLVDVREPSEYSIVHIPASINVPYRSHPDAFALDPLEFEKQIGIPKPDSAKELIFYCASGKRGGEAQKVASSHGYSNTSLYPGSMNDWVSHGGDKLDL
As to B1, the Michaelis-Menten constant (Km) came out at 150 ± 50 µM in “purified protein [1]” and 2000 ± 500 µM in “purified protein [2]” (sulfane sulfur transferred to active site cysteine (Cys98)).

B2: human TSTD1 (Homo sapiens) (protein)
chain: MAGAPTVSLPELRSLLASGRARLFDVRSREEAAAGTIPGALNIPVSELESALQMEPAAFQALYSAEKPKLEDEHLVFFCQMGKRGLQATQLARSLGYTGARNYAGAYREWLEKES
With B2, the Km in “purified protein [1]” was 90 ± 10 µM; in “purified protein [2]” (sulfane sulfur transferred to active site cysteine (Cys79)), 14000 ± 2000 µM.
